What was measured:
[1] = tested on: CBCVA, THCVA, and CBDVA production; assay: In vivo TS activity assay, Example 2 protein engineering of A. niger CBCAS, cultures fed divaric acid; format: cell-based, S. cerevisiae; conditions: fed divaric acid; for Mean CBCVA / Mean CBDVA / Mean THCVA: S. cerevisiae strains expressing A. niger CBCAS mutants, secondary screen; for % CBCVA / % CBDVA / % THCVA: share of terminal cannabinoid product profile
Summary of the method: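 S. cerevisiae expressing A. niger CBCAS point mutants (N-terminal MFalpha2, C-terminal HDEL signal peptides) grown 2 days at 30 °C in YEP+4% dextrose, then 4 days at 20 °C in YEP+4% galactose with 1 mM divaric acid plus daily 2% galactose and 1 mM divaric acid spikes, then 2 days with 100 mM sodium citrate pH 5.5. Methanol extracts analysed by LC-MS; quadruplicate.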

[2] = tested on: CBCA, THCA, and CBDA production; assay: In vivo TS activity assay, Example 2 protein engineering of A. niger CBCAS, cultures fed olivetolic acid; format: cell-based, S. cerevisiae; conditions: for Mean CBCA / Mean CBDA / Mean THCA: secondary screen, olivetolic acid (Table 8); for % CBCA / % CBDA / % THCA: share of terminal cannabinoid product profile
Summary of the method: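 S. cerevisiae expressing A. niger CBCAS mutants (MFalpha2/HDEL-tagged) grown 2 days at 30 °C in YEP+4% dextrose, then 4 days at 20 °C in YEP+4% galactose with 1 mM olivetolic acid, spiked every 24 h with 2% galactose and 1 mM olivetolic acid. 100 mM citrate pH 5.5 added, methanol-extracted; CBCA, THCA, CBDA quantified by LC-MS.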

Row | Molecule | Mean CBCVA [1] [µg/L] | Mean CBDVA [1] [µg/L] | Mean THCVA [1] [µg/L] | % CBCVA [1] [%] | % CBDVA [1] [%] | % THCVA [1] [%] | Mean CBCA [2] [µg/L] | Mean CBDA [2] [µg/L] | Mean THCA [2] [µg/L] | % CBCA [2] [%] | % CBDA [2] [%] | % THCA [2] [%]
1 | t865809 (protein, expressed in S. cerevisiae strain) MGNTTSIAGRDCLISALGGNSALAVFPNELLWTADVHEYNLNLPVTPAAITYPETAAQIAGVVKCASDYDYKVQARSGGHSFGNYGLGGADGAVVVDMKHFTQFSMDDETYEAVIGPGTTLGDVDIELYNNGKRAMAHGVCPTIKTGGHFTIGGLGPTARQWGLALDHVEEVEVVLANSSIVRASNTQNQDVFFAVKGAAANFGIVTEFKVRTEPAPGLAVQYSYTFNLGSTAEKAQFVKDWQSFISAKNLTRQFYNNMVIFDGDIILEGLFFGSKEQYDALGLEDHFAPKNPGNILVLTDWLGMVGHALEDTILKLVGNTPTWFYAKSLGFRQDTLIPSAGIDEFFEYIANHTAGTPAWFVTLSLEGGAINDVAEDATAYAHRDVLFWVQLFMVNPVGPISDTTYEFTDGLYDVLARAVPESVGHAYLGCPDPRMEDAQQKYWRTNLPRLQELKEELDPKNTFHHPQGVMPA | 3093.25 | 0.00 | 1662.32 | 65.04 | 0.00 | 34.96 | 20413.40 | 6738.75 | 1390.36 | 71.52 | 23.61 | 4.87
2 | t865727 (protein) MGNTTSIAGRDCLISALGGNSALAVFPNELLWTADVHEYNLNLPVTPAAITYPETAAQIAGVVKCASDYDYKVQARSGGHSFGNYGLGGADGAVVVDMKHFTQFSMDDETYEAVIGPGTTLNDVDIELYNNGKRAMAHGVCPTIKTGGHFTIGGLGPTARQWGLALDHVEEVEVVLANSSIVRASNTQNQDVFFAVKGAAANFGIVTEFKVRTEPAPGLAVQYSYTFNLGSTAEKAQFVKDWQSFISAKNLTRQFYNNMVIFDGDIILEGLFFGSKEQYDALGLEDHFAPKNPGNILVLTDWLGMVGHALEDTILKLVGNTPTWFYAKSLGFRQDTLIPSAGIDEFFEYIANATAGTPAWFVTLSLEGGAINDVAEDATAYAHRDVLFWVQLFMVNPVGPISDTTYEFTDGLYDVLARAVPESVGHAYLGCPDPRMEDAQQKYWRTNLPRLQELKEELDPKNTFHHPQGVMPA | 1829.32 | 0.00 | 981.31 | 65.09 | 0.00 | 34.91 | 16276.39 | 4297.38 | 1177.87 | 74.83 | 19.76 | 5.42
3 | t865740 (protein) MGNTTSIAGRDCLISALGGNSALAVFPNELLWTADVHEYNLNLPVTPAAITYPETAAQIAGVVKCASDYDYKVQARSGGHSFGNYGLGGADGAVVVDMKHFTQFSMDDETYEAVIGPGTTLEDVDIELYNNGKRAMAHGVCPTIKTGGHFTIGGLGPTARQWGLALDHVEEVEVVLANSSIVRASNTQNQDVFFAVKGAAANFGIVTEFKVRTEPAPGLAVQYSYTFNLGSTAEKAQFVKDWQSFISAKNLTRQFYNNMVIFDGDIILEGLFFGSKEQYDALGLEDHFAPKNPGNILVLTDWLGMVGHALEDTILKLVGNTPTWFYAKSLGFRQDTLIPSAGIDEFFEYIANHTAGTPAWFVTLSLEGGAINDVAEDATAYAHRDVLFWVQLFMVNPVGPISDTTYEFTDGLYDVLARAVPESVGHAYLGCPDPRMEDAQQKYWRTNLPRLQELKEELDPKNTFHHPQGVMPA | 1153.83 | 0.00 | 469.98 | 71.06 | 0.00 | 28.94 | 11837.41 | 3671.56 | 685.53 | 73.10 | 22.67 | 4.23
4 | t865733 (protein) MGNTTSIAGRDCLISALGGNSALAVFPNELLWTADVHEYNLNLPVTPAAITYPETAAQIAGVVKCASDYDYKVQARSGGHSFGNYGLGGADGAVVVDMKHFTQFSMDDETYEAVIGPGTTLNDVDIELYNNGKRAMAHGVCPTIKTGGHFTIGGLGPTARQWGLALDHVEEVEVVLANSSIVRASNTQNQDVFFAVKGAAANFGIVTEFKVRTEPAPGLAVQYSYTFNLGSTAEKAQFVKDWQSFISAKNLTRQFYNNMVIFDGDIILEGLFFGSKEQYDALGLEDHFAPKNPGNILVLTDWLGMVGHALEDTILKLVGNTPTWFYAKSLGFRQDTLIPSAGIDEFFEYIANHTAGTPAWFVTLSLEGGAINDVAEDATAYAHRDVLFWVQLFMVNPTGPISDTTYEFTDGLYDVLARAVPESVGHAYLGCPDPRMEDAQQKYWRTNLPRLQELKEELDPKNTFHHPQGVMPA | 2023.09 | 0.00 | 1202.96 | 62.71 | 0.00 | 37.29 | 18070.99 | 6320.33 | 1307.71 | 70.32 | 24.59 | 5.09
5 | t865796 (protein, expressed in S. cerevisiae strain) MGNTTSIAGRDCLISALGGNSALAVFPNELLWTADVHEYNLNLPVTPAAITYPETAAQIAGVVKCASDYDYKVQARSGGHSFGNYGLGGADGAVVVDMKHFTQFSMDDETYEAVIGPGTTLNDVDIELYNNGKRAMAHGVCPTIKTGGHFTIGGLGPTARQWGLALDHVEEVEVVLANSSIVRASNTQNQDVFFAVKGAAANFGIVTEFKVRTEPAPGLAVQYSYTFNLGSTAEKAQFVKDWQSFISAKNLTRQFYNNMVIFDGDIILEGLFFGSKEQYDALGLEDHFAPKNPGNILVLTDWLGMVGHALEDTILKLVGNTPTWFYAKSLGFRQDTLIPSAGIDEFFEYIANHTAGTPAWFVTLSLEGGAINDVAEDATAYAHRDVLFWVQLFMVNPVGPISDTTYEFTDGLYDVLARAVPESVGHAYLGCPDPRMEDAQQKYWRTNLPRLQELKEEWDPKNTFHHPQGVMPA | 2570.89 | 0.00 | 1344.71 | 65.66 | 0.00 | 34.34 | 19975.57 | 6427.56 | 1436.09 | 71.75 | 23.09 | 5.16
6 | t865731 (protein) MGNTTSIAGRDCLISALGGNSALAAFPNELLWTADVHEYNLNLPVTPAAITYPETAAQIAGVVKCASDYDYKVQARSGGHSFGNYGLGGADGAVVVDMKHFTQFSMDDETYEAVIGPGTTLNDVDIELYNNGKRAMAHGVCPTIKTGGHFTIGGLGPTARQWGLALDHVEEVEVVLANSSIVRASNTQNQDVFFAVKGAAANFGIVTEFKVRTEPAPGLAVQYSYTFNLGSTAEKAQFVKDWQSFISAKNLTRQFYNNMVIFDGDIILEGLFFGSKEQYDALGLEDHFAPKNPGNILVLTDWLGMVGHALEDTILKLVGNTPTWFYAKSLGFRQDTLIPSAGIDEFFEYIANHTAGTPAWFVTLSLEGGAINDVAEDATAYAHRDVLFWVQLFMVNPVGPISDTTYEFTDGLYDVLARAVPESVGHAYLGCPDPRMEDAQQKYWRTNLPRLQELKEELDPKNTFHHPQGVMPA | 1605.94 | 0.00 | 885.33 | 64.46 | 0.00 | 35.54 | 16059.53 | 4006.74 | 971.80 | 76.34 | 19.05 | 4.62
7 | t865814 (protein, expressed in S. cerevisiae strain) MGNTTSIAGRDCLISALGGNSALAVFPNELLWTADVHEYNLNLPVTPAAITYPETAAQIAGVVKCASDYDYKVQARSGGHSFGNYGLGGADGAVVVDMKHFTQFSMDDETYEAVIGPGTTLNDVDIELYNNGKRAMAHGVCPTIKTGGHFTIGGLGPTARQWGLALDHVEEVEVVLANSSIVRASNTQNQDVFFAVKGAAANFGIVTEFKVRTEPAPGLAVQYSYTFNLGSTAEKAQFVKDWQSFISAKNLTRQFYNNMVIFDGDIILEGLFFGSKEQYNALGLEDHFAPKNPGNILVLTDWLGMVGHALEDTILKLVGNTPTWFYAKSLGFRQDTLIPSAGIDEFFEYIANHTAGTPAWFVTLSLEGGAINDVAEDATAYAHRDVLFWVQLFMVNPVGPISDTTYEFTDGLYDVLARAVPESVGHAYLGCPDPRMEDAQQKYWRTNLPRLQELKEELDPKNTFHHPQGVMPA | 3290.24 | 0.00 | 1468.01 | 69.15 | 0.00 | 30.85 | 20192.93 | 6751.44 | 1367.48 | 71.32 | 23.85 | 4.83

— patent publication US20230137139A1, “BIOSYNTHESIS OF CANNABINOIDS AND C[…]” (priority 2020, published 2023)
